Source: patent US20240309087A1 (SHANGHAI JUNSHI BIOSCIENCES, published 2024)

Tests used:
[1] = target: T1, human CD112R on CHO-CD112R cells (human, UniProt Q6DKI7 41-326); assay: FACS on CHO-CD112R cells
T1 construct: whole, on cells; also called hCD112R; PVRIG
T1 sequence (looked up): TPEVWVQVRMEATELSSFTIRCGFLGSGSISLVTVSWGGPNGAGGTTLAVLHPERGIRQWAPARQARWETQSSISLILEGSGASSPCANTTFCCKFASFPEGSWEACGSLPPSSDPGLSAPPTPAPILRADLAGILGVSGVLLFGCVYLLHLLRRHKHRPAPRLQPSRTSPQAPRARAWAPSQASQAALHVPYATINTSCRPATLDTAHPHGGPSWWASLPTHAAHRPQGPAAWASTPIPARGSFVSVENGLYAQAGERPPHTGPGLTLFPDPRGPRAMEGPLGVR
Procedure: (§1) CHO-CD112R cells (constructed in-house by Junshi, the amino acid sequence of CD112R in the construction of stable cell lines overexpressing CD112R comprises amino acids at positions Met1-Arg326 under NCBI accession No. Q6DKI7) overexpressing human CD112R were incubated with each of the chimeric anti-CD112R antibodies at different concentrations (initial concentration: 50 μg/mL, 5-fold dilution, 12 concentration gradients in total) at 4° C. for 30 min, and then washed and incubated with a fluorescence-labeled secondary antibody at 4° C. for 30 min in the dark. Finally, the cells were collected by using a flow cytometer (BD Canto II), and the fluorescent antibodies bound to the cell surface were detected. Raw data were analyzed by using FlowJo to obtain MFI values, the antibody dose-dependent binding curves were fitted by using GraphPad (FIG. 3, a and b) and EC₅₀ was calculated (Table 3). The positive control and the negative control were Ref (anti-CD112R antibody, University of Colorado, obtained by expression and purification according to the sequences in US20170240613) and anti-KLH hu-IgG4 antibody, respectively.

[2] = target: T1, human CD112R on CHO-CD112R cells; assay: FACS on CHO-CD112R cells; EC50 Ref/EC50 antibody
Procedure: as §1

[3] = target: T2, recombinant cynomolgus monkey CD112R antigen (cynomolgus monkey, UniProt A0A2K5WVV8 1-322); assay: ELISA on coated recombinant cynomolgus monkey CD112R, OD 450 nm, ambiguous fit; unit from the axis
T2 construct: bought
T2 sequence: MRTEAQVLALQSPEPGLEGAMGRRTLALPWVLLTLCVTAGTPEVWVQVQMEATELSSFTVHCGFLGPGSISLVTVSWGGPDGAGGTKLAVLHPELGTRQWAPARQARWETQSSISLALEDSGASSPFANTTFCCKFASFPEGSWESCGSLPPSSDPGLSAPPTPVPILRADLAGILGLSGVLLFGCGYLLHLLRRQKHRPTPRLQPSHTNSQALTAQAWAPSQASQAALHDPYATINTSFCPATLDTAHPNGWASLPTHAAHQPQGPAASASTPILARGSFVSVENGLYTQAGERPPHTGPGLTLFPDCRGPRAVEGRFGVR
Procedure: A plate was coated with a recombinant cynomolgus monkey CD112R antigen (Acrobiosystems, Cat No. PVG-C5259) at a fixed concentration, and the chimeric anti-CD112R antibodies diluted in a gradient (initial concentration: 1 μg/mL, 2.5-fold gradient dilution, 12 concentration gradients in total) were added to bind to the antigen. Horseradish peroxidase (HRP)-conjugated mouse anti-human IgG4 Fc (Southern Biotech, 9200-05) was subjected to a 5000-fold dilution and used as a detection antibody for detection. The color development was performed with 0.1 mg/mL TMB, and finally stopped with 2 M hydrochloric acid. […] EC₅₀ was obtained by fitting with a four-parameter logistic regression (4PL) model.

EC50 [1]: 0.000294 mg/mL
Relative activity (%) [2]: 572%
EC50 [3]: ~27.6 mg/mL
B1: Chi-18 (antibody, V domains shown)
VH: EVQLQQSGAELVKPGASVKISCKASGYTFTDYNMDWVKQSHGKSLEWIGDIHPKYDRTSYNQNFKGKATLTVDKSSRTAYMELRSLTSEDTAVYFCVRINDFDEGFAMDYWGQGTSVTVSS
VL: QIVLTQSPAIMSVSPGEKVTMTCSATSSINYMHWYQQKSGTSPKRWIYDTSKLASGVPARFSGSGSGTSYSLTISNMEAEDAATYYCQQWTSNPLTFGAGTKLELK
notes: chimeric
